Data reported in article PMC6107277, “Distinct substrate specificity and physicochemical characterization of native human hepatic thymidine phosphorylase” (PLoS ONE, 2018).

How the values were obtained:
[1] = biological target: the molecule itself; test: AUC; sedimentation equilibrium, Beckman XL-A, 15,000 rpm, 20°C, Buffer A, 0.4, 0.2 and 0.1 mg protein/mL, absorbance at 278 nm; global fit to a monomer-dimer-tetramer association model; constants for monomer to dimer (1,2) and dimer to tetramer (2,4)
[2] = biological target: the molecule itself; test: SEC + native gel or EMSA; hydroxyapatite homogeneously purified TP (first peak) on Sephadex G-100 in Buffer A (20 mM potassium phosphate pH 8.0, 1 mM DTT, 1 mM EDTA, 1 mM PMSF), 4°C, calibrated with standard proteins; native-PAGE on 10% gel; native about 100 kDa against about 52 kDa on SDS-PAGE

B1: native human hepatic thymidine phosphorylase (enzyme, human (endogenous in liver), UniProt P19971 11-482, looked up)
chain: APPAPGDFSGEGSQGLPDPSPEPKQLPELIRMKRDGGRLSEADIRGFVAAVVNGSAQGAQIGAMLMAIRLRGMDLEETSVLTQALAQSGQQLEWPEAWRQQLVDKHSTGGVGDKVSLVLAPALAACGCKVPMISGRGLGHTGGTLDKLESIPGFNVIQSPEQMQVLLDQAGCCIVGQSEQLVPADGILYAARDVTATVDSLPLITASILSKKLVEGLSALVVDVKFGGAAVFPNQEQARELAKTLVGVGASLGLRVAAALTAMDKPLGRCVGHALEVEEALLCMDGAGPPDLRDLVTTLGGALLWLSGHAGTQAQGAARVAAALDDGSALGRFERMLAAQGVDPGLARALCSGSPAERRQLLPRAREQEELLAPADGTVELVRALPLALVLHELGAGRSRAGEPLRLGVGAELLVDVGQRLRRGTPWLRVHRDGPALSGPQSRALQEALVLSDRAPFAAPSPFAELVLPPQQ
modifications: N-terminal blocked by an unknown moiety (neither N-formyl nor pyrrolidone carboxylic acid)
notes: thymidine phosphorylase / PD-ECGF, human liver, native subunit of about 50 kDa (49,882 by electrospray MS); DPSPEPKQ = 28-35; Native tissue protein; also called TP; human liver TP; source: purified from human liver (autopsy material) by DEAE-cellulose, Phenyl Sepharose CL-4B and hydroxyapatite chromatography; also used as DEAE-cellulose partially purified fraction and as 50,000 x g liver cytosol
With B1 the “Ka (1,2), monomer to dimer” value [1] was 581000 M⁻¹, the “Ka (2,4), dimer to tetramer” value [1] was 10100 M⁻¹ and the “stoichiometry N” value [2] was 2.
